This test concerns the target human C5aR1 (human) (UniProt P21730). The test is described as follows: cell-based or functional assay.

human C5aR1 (human), sequence (P21730 whole entry): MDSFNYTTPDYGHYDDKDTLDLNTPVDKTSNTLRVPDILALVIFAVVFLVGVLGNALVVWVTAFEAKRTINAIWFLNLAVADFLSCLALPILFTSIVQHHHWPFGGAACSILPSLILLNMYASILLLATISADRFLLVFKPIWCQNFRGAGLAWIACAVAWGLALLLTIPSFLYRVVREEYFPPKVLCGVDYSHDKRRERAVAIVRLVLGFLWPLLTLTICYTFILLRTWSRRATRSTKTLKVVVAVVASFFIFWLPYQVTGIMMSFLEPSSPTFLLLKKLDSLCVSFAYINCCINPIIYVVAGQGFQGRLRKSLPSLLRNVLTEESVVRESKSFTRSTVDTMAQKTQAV

Take “hC5a (from UniProt P01031 678-751) (ligand)”: the EC50[M] hC5a, luciferase reporter in HEK293/Gα16/hC5aR1/NFAT-luc cells was 3.9e-10 M.

For the origin of these results see patent US20170355757A1.
